Test results from patent publication US20100129347A1, “HERPES VIRUS INFECTION INHIBITOR, METHOD FOR INHIBITING INFECTION WITH HERPES VIRUS, AND USE THEREOF” (Osaka University, priority 2007, published 2010).

System: HSV-1
Test: HSV-1-GFP infection of CHO-K1 cells transfected with human PILR, ratio of infected cells by flow cytometry
Assay type: cell-based
Details: various concentrations, FIG. 3
Protocol: CHO-K1 cells were transiently transfected in a 10% FCS-containing F-12 culture medium using Lipofectamine 2000 (produced by Invitrogen) or GeneJuice (produced by Novagen). 1 day after the transfection, the 10% FCS-containing F-12 culture medium was replaced with a 1% FCS-containing F-12 culture medium. 2 days after the transfection, the transfectant was mixed with HSV-GFP and centrifuged at 32° C. at 2500 rpm for 2 hours. Thus, the transfectant was infected with HSV-GFP.
Human PILR was transiently transfected to the CHO-K1 cells by using pMx-IRES-DsRed expression vector, and the CHO-K1 cells were caused to be infected with HSV-1 by using HSV-1-GFP in the presence of anti-human PILR mAb with various concentrations or control mAb. The ratio of HSV-1-infected cells was analyzed by flow cytometry.
The CHO-K1 cells to which PILR had been transfected were caused to be infected with HSV-1 in the presence of PILR-Ig with various concentrations or Ig-fused protein without PILR that was a control. The ratio of the infected cells was analyzed by flow cytometry. Since PILR-Ig directly binds to gB of HSV-1, it is considered that there is a possibility that PILR-Ig blocks interaction between HSV-1 and PILR on the surface of a cell.

B1: control Ig-fused protein: Ig-fused protein without PILR used as control; purified human CD200-Ig fusion protein (protein)
chain: QVQVVTQDEREQLYTPASLKCSLQNAQEALIVTWQKKKAVSPENMVTFSENHGVVIQPAYKDKINITQLGLQNSTITFWNITLEDEGCYMCLFNTFGFGKISGTACLTVYVQPIVSLHYKFSEDHLNITCSATARPAPMVFWKVPRSGIENSTVTLSHPNGTTSVTSILHIKDPKNQVGKEVICQVLHLGTVTDFKQTVNKG
modifications: left off: a dimerising Fc or GST
blocking of HSV-1 infection of PILR-transfected CHO-K1 cells: not blocked
